This note sets out measurements from patent US20140234325A1 (ALBERT EINSTEIN COLLEGE OF MEDICINE, published 2014).

For assay [1], the target named is T1, staphylococcal enterotoxin A (SEA) (Staphylococcus aureus, UniProt P0A0L1 25-257).
T1 sequence: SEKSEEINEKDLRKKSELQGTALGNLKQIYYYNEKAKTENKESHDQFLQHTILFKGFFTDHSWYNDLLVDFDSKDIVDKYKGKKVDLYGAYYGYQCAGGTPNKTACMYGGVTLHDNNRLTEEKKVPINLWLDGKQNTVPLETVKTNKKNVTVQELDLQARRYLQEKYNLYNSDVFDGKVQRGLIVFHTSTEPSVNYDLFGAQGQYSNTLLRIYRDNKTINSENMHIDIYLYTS
As to the kind of experiment: Western blot with purified toxin. (In western blotting, separated proteins are transferred to a membrane and probed.)

Assay [2] addresses T2, toxic shock syndrome toxin-1 (TSST-1) (Staphylococcus aureus, UniProt P06886 41-234).
T2 sequence: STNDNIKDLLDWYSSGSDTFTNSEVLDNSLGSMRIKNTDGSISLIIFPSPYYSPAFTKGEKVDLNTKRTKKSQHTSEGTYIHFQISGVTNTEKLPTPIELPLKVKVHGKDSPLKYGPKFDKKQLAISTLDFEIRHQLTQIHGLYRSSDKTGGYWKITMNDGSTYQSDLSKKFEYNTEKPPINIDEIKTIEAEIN
Nature of the assay: Western blot with purified toxin.

B1: mAb 14G8 (antibody, V domains shown)
VH: EVQLLESGGGLVQPGGSLKLSCATSGFTFSAYGLSWVRQTPERRLEWVASISGGGSVYYPDSVKGRFTISRDTAGDILFLQMNSLRSEDSAIYYCVRDLYGDYVGRYAYWGQGTLVIVSA
VL: DIVMTQSPATLSVTPGDRVSLSCRASQSIGDYLHWYQQKSHESPRLLINYASQSISGIPSRFSGSGSGSDFTLIINSVEPEDVGVYYCQNGHSFPYTFGGGTKLEIR
As to B1, the binding result in assay [1] and in assay [2] was “no binding” each time.

B2: mAb 20B1 (antibody, V domains shown)
VH: QIQLVQSGPELKKPGETVRISCKASGYIFTIAGIQWVQKMPGRGLRWIGWINTHSGVPEYAEEFKGRFAFSLETSARTAYLQISNLKDEDTATYFCARIYYGNNGGVMDYWGQGTSVTVSS
VL: DIQMTQSPSSLSASLGERVSLTCRASQEISDYLTWLQQKPDGTIKRLIYVASSLDSGVPKRFSGSRSGSDYSLTISSLESEDFADYYCLQYANYPWTFGGGTKLEIR
With B2, the binding result in assay [1] and in assay [2] was “no binding” throughout.

B3: mAb 6D3 (antibody, V domains shown)
VH: QVQLQQSGAELVKPGASVKLSCKASGYTFTSHWMHWVKQRPGQGLEWIGEIDPSDSYINYNQIFEGKATLTVDKSSTTAYLQLSSLTSEDSAVYYCARTAGLLAPMDYWGQGTSVTVSS
VL: DIVMTQSPSSLTVTAGEKVTMTCKSSQSLFNSGNQKNFLTWYQQIPGQPPKLLIYWASTRDSGVPDRFTGSGSGTDFTLTISSVQAEDLAVYYCQNDYTYPLTFGVGTKLELK
Turning to B3, the binding result in assay [1] and in assay [2] was “no binding” each time.
